T1: PUF4 RNA-binding domain (Saccharomyces cerevisiae, UniProt P25339 537-888)
T1 sequence: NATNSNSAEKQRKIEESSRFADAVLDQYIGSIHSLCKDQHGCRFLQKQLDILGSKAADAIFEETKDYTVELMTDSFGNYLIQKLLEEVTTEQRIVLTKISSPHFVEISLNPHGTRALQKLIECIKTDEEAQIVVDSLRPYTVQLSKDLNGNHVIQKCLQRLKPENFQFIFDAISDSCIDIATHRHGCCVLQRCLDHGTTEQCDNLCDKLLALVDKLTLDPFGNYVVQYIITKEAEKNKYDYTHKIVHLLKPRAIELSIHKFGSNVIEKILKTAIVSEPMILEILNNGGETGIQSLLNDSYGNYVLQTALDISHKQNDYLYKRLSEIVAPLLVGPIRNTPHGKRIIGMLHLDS


Biological target: T1, PUF4 RNA-binding domain
Test: Mg; RNA-MaP; 20 mM Na-HEPES pH 7.4, 30 mM KOAc, 0.75 mM MgCl2, 0.1% Tween-20, 5% glycerol, 0.1 mg/mL BSA, 2 mM DTT; 25 C; 0.0125-409.6 nM protein
Details: tags: N-His6-TEV cleaved; C-SNAP kept, Cy3B-labelled; label: tethered on chip by stalled RNA polymerase

Row | Binder | Kd [nM]
1 | UCUCUUGCUAUAUAUAUAUCUCUU (ssRNA) [Id_i_S1_P3E.3_K3.2_C3.2_[C-2G]_[T-1C]_H3.2_A3.1_F3.1_T3.2] | 569
2 | UCUCUUAUCACACUAUAUAUCUCUU (ssRNA) [Id_i_S1_P3E.7_K3.3_C3.3_[T-3A]_[C-2T]_[T-1C]_H3.3_A3.1_F3.1_T3.2] | 1520
3 | UCUCUUAACACACUAUAUAUCUCUU (ssRNA) [Id_i_S1_P3E.7_K3.3_C3.3_[T-3A]_[C-2A]_[T-1C]_H3.3_A3.1_F3.1_T3.2] | 2180
4 | UCUCUUCUCACACUAUAUAUCUCUU (ssRNA) [Id_i_S1_P3E.7_K3.3_C3.3_[T-3C]_[C-2T]_[T-1C]_H3.3_A3.1_F3.1_T3.2] | > 2300
5 | UCUCUUGACUAUAUAUAUAUCUCUU (ssRNA) [Id_i_S1_P3E.6_K3.2_C3.3_[T-3G]_[C-2A]_[T-1C]_H3.2_A3.1_F3.1_T3.2] | 806
6 | UCUCUUAAUAUAUAUAUAUCUCUU (ssRNA) [Id_i_S1_P3E.3_K3.2_C3.2_[C-2A]_[T-1A]_H3.2_A3.1_F3.1_T3.2] | 675
7 | UCUCUUCAAUAUAUAUAUAUCUCUU (ssRNA) [Id_i_S1_P3E.6_K3.2_C3.3_[T-3C]_[C-2A]_[T-1A]_H3.2_A3.1_F3.1_T3.2] | 777
8 | UCUCUUAACUGUAUAUAUAUCUCUU (ssRNA) [Id_i_S1_P3E.5_K3.1_C3.3_[T-3A]_[C-2A]_[T-1C]_H3.1_A3.1_F3.1_T3.2] | 6.08
9 | UCUCUUAGCUAUAUAUAUAUCUCUU (ssRNA) [Id_i_S1_P3E.6_K3.2_C3.3_[T-3A]_[C-2G]_[T-1C]_H3.2_A3.1_F3.1_T3.2] | 805
10 | UCUCUUUGUAAAUUAUCUCUU (ssRNA) [Ia_S1_P4E.1_K4.1_C4.1_H4.1_A4.1_[T5A]_F4.1_T4.1] | 2.08
11 | UCUCUUAGUAUAUAUAUAUCUCUU (ssRNA) [Id_i_S1_P3E.3_K3.2_C3.2_[C-2A]_[T-1G]_H3.2_A3.1_F3.1_T3.2] | 576
12 | UCUCUUCGCUAUAUAUAUAUCUCUU (ssRNA) [Id_i_S1_P3E.6_K3.2_C3.3_[T-3C]_[C-2G]_[T-1C]_H3.2_A3.1_F3.1_T3.2] | 517
13 | UCUCUUUAUAUAUAUAUAUCUCUU (ssRNA) [Id_i_S1_P3E.3_K3.2_C3.2_[C-2T]_[T-1A]_H3.2_A3.1_F3.1_T3.2] | 439
14 | UCUCUUGGCUGUAUAUAUAUCUCUU (ssRNA) [Id_i_S1_P3E.5_K3.1_C3.3_[T-3G]_[C-2G]_[T-1C]_H3.1_A3.1_F3.1_T3.2] | 6.92
15 | UCUCUUCUAUAUAUAUAUAUCUCUU (ssRNA) [Id_i_S1_P3E.6_K3.2_C3.3_[T-3C]_[C-2T]_[T-1A]_H3.2_A3.1_F3.1_T3.2] | 341
16 | UCUCUUUAACACUAUAUAUCUCUU (ssRNA) [Id_ii_S1_P3E.4_K3.3_C3.2_[C-2T]_[T-1A]_H3.3_A3.1_F3.1_T3.2] | 2160
17 | UCUCUUGUCUAUAUAUAUAUCUCUU (ssRNA) [Id_i_S1_P3E.6_K3.2_C3.3_[T-3G]_[C-2T]_[T-1C]_H3.2_A3.1_F3.1_T3.2] | 102
18 | UCUCUUUGUGUAUAUAUAUCUCUU (ssRNA) [Id_ii_S1_P3E.2_K3.1_C3.2_[C-2T]_[T-1G]_H3.1_A3.1_F3.1_T3.2] | 6.24
19 | UCUCUUAGACACUAUAUAUCUCUU (ssRNA) [Id_ii_S1_P3E.4_K3.3_C3.2_[C-2A]_[T-1G]_H3.3_A3.1_F3.1_T3.2] | > 2300
20 | UCUCUUUCUGUAUAUAUAUCUCUU (ssRNA) [Id_ii_S1_P3E.2_K3.1_C3.2_[C-2T]_[T-1C]_H3.1_A3.1_F3.1_T3.2] | 3.33
21 | UCUCUUGCUAUAUUAUCUCUU (ssRNA) [Ib_S1_P4E.1_K4.1_C4.1_H4.1_[T1G]_[G2C]_A4.1_F4.1_T4.1] | 481

Row | Binder | Kd [nM]
22 | UCUCUUGUCUGUAUAUAUAUCUCUU (ssRNA) [Id_i_S1_P3E.5_K3.1_C3.3_[T-3G]_[C-2T]_[T-1C]_H3.1_A3.1_F3.1_T3.2] | 4.63
23 | UCUCUUAUCUGUAUAUAUAUCUCUU (ssRNA) [Id_i_S1_P3E.5_K3.1_C3.3_[T-3A]_[C-2T]_[T-1C]_H3.1_A3.1_F3.1_T3.2] | 6.91
24 | UCUCUUACUGUAUAUAUAUCUCUU (ssRNA) [Id_i_S1_P3E.2_K3.1_C3.2_[C-2A]_[T-1C]_H3.1_A3.1_F3.1_T3.2] | 9.07
25 | UCUCUUAAAUGUAUAUAUAUCUCUU (ssRNA) [Id_i_S1_P3E.5_K3.1_C3.3_[T-3A]_[C-2A]_[T-1A]_H3.1_A3.1_F3.1_T3.2] | 10.3
26 | UCUCUUCUAACACUAUAUAUCUCUU (ssRNA) [Id_i_S1_P3E.7_K3.3_C3.3_[T-3C]_[C-2T]_[T-1A]_H3.3_A3.1_F3.1_T3.2] | > 2300
27 | UCUCUUCUGUAUAUAUAUAUCUCUU (ssRNA) [Id_i_S1_P3E.6_K3.2_C3.3_[T-3C]_[C-2T]_[T-1G]_H3.2_A3.1_F3.1_T3.2] | 8.87
28 | UCUCUUCACUGUAUAUAUAUCUCUU (ssRNA) [Id_i_S1_P3E.5_K3.1_C3.3_[T-3C]_[C-2A]_[T-1C]_H3.1_A3.1_F3.1_T3.2] | 5.56
29 | UCUCUUAUCUAUAUAUAUAUCUCUU (ssRNA) [Id_i_S1_P3E.6_K3.2_C3.3_[T-3A]_[C-2T]_[T-1C]_H3.2_A3.1_F3.1_T3.2] | 650
30 | UCUCUUUGUAUAGUUUCUCUU (ssRNA) [Ic_S1_P4E.1_K4.1_C4.1_H4.1_A4.1_[T7G]_F4.1_[A9T]_T4.1] | 9.53
31 | UCUCUUAGCACACUAUAUAUCUCUU (ssRNA) [Id_i_S1_P3E.7_K3.3_C3.3_[T-3A]_[C-2G]_[T-1C]_H3.3_A3.1_F3.1_T3.2] | > 2300
32 | UCUCUUAGUGUAUAUAUAUCUCUU (ssRNA) [Id_i_S1_P3E.2_K3.1_C3.2_[C-2A]_[T-1G]_H3.1_A3.1_F3.1_T3.2] | 14.6
33 | Id_ii_S2_P3E.2_K3.1_C3.2_[C-2T]_[T-1G]_H3.1_A3.1_F3.1_T3.2 (ssRNA) RNA: UUUGAUUAAUAUGAUAUCGUUCUUUCUUGUGUAUAUAUAUUCUUUCUCGAUAUCAUAUUAAUCUUU | 1.57
34 | UCUCUUCUAUGUAUAUAUAUCUCUU (ssRNA) [Id_i_S1_P3E.5_K3.1_C3.3_[T-3C]_[C-2T]_[T-1A]_H3.1_A3.1_F3.1_T3.2] | 10.2
35 | UCUCUUAGCUGUAUAUAUAUCUCUU (ssRNA) [Id_i_S1_P3E.5_K3.1_C3.3_[T-3A]_[C-2G]_[T-1C]_H3.1_A3.1_F3.1_T3.2] | 7.66
36 | Ic_S4_P5E.1_K5.1_C5.1_H5.1_A5.1_[T5C]_[T6G]_[A7C]_F5.1_[T8C]_[T9C]_T5.1 (ssRNA) RNA: UUUGACAACUGAUCGUUCUUUCUUGUACGCCCAUUCUUUCUCGAUCAGUUGUCUUU | 463
37 | Ic_S4_P5E.1_K5.1_C5.1_H5.1_A5.1_[T5A]_[T6A]_[A7T]_F5.1_[T9A]_T5.1 (ssRNA) RNA: UUUGACAACUGAUCGUUCUUUCUUGUAAAUUAAUUCUUUCUCGAUCAGUUGUCUUU | 2.48
38 | UCUCUUGCUGUAUAUAUAUCUCUU (ssRNA) [Id_ii_S1_P3E.2_K3.1_C3.2_[C-2G]_[T-1C]_H3.1_A3.1_F3.1_T3.2] | 7.65
39 | UCUCUUUGACACUAUAUAUCUCUU (ssRNA) [Id_i_S1_P3E.4_K3.3_C3.2_[C-2T]_[T-1G]_H3.3_A3.1_F3.1_T3.2] | 2180
40 | UCUCUUUGUAUAUAUAUAUCUCUU (ssRNA) [Id_ii_S1_P3E.3_K3.2_C3.2_[C-2T]_[T-1G]_H3.2_A3.1_F3.1_T3.2] | 6.55
41 | UCUCUUAAAACACUAUAUAUCUCUU (ssRNA) [Id_i_S1_P3E.7_K3.3_C3.3_[T-3A]_[C-2A]_[T-1A]_H3.3_A3.1_F3.1_T3.2] | 2250
42 | UCUCUUUGUAUACUUUCUCUU (ssRNA) [Ic_S1_P4E.1_K4.1_C4.1_H4.1_A4.1_[T7C]_F4.1_[A9T]_T4.1] | 5.99

Row | Binder | Kd [nM]
43 | UCUCUUUCACACUAUAUAUCUCUU (ssRNA) [Id_i_S1_P3E.4_K3.3_C3.2_[C-2T]_[T-1C]_H3.3_A3.1_F3.1_T3.2] | > 2300
44 | UCUCUUCAAACACUAUAUAUCUCUU (ssRNA) [Id_i_S1_P3E.7_K3.3_C3.3_[T-3C]_[C-2A]_[T-1A]_H3.3_A3.1_F3.1_T3.2] | 2040
45 | UCUCUUGGCACACUAUAUAUCUCUU (ssRNA) [Id_i_S1_P3E.7_K3.3_C3.3_[T-3G]_[C-2G]_[T-1C]_H3.3_A3.1_F3.1_T3.2] | 821
46 | UCUCUUUGUAUAAUCUCUCUU (ssRNA) [Ic_S1_P4E.1_K4.1_C4.1_H4.1_A4.1_[T7A]_F4.1_[A9C]_T4.1] | 15.8
47 | UCUCUUCAAUGUAUAUAUAUCUCUU (ssRNA) [Id_i_S1_P3E.5_K3.1_C3.3_[T-3C]_[C-2A]_[T-1A]_H3.1_A3.1_F3.1_T3.2] | 7.95
48 | UCUCUUUGUAUAAUUUCUCUU (ssRNA) [Ib_S1_P4E.1_K4.1_C4.1_H4.1_A4.1_[T7A]_F4.1_[A9T]_T4.1] | 8.41
49 | UCUCUUCUCUAUAUAUAUAUCUCUU (ssRNA) [Id_i_S1_P3E.6_K3.2_C3.3_[T-3C]_[C-2T]_[T-1C]_H3.2_A3.1_F3.1_T3.2] | 389
50 | UCUCUUGUCACACUAUAUAUCUCUU (ssRNA) [Id_i_S1_P3E.7_K3.3_C3.3_[T-3G]_[C-2T]_[T-1C]_H3.3_A3.1_F3.1_T3.2] | 39
51 | UCUCUUACACACUAUAUAUCUCUU (ssRNA) [Id_i_S1_P3E.4_K3.3_C3.2_[C-2A]_[T-1C]_H3.3_A3.1_F3.1_T3.2] | 998
52 | UCUCUUCGCUGUAUAUAUAUCUCUU (ssRNA) [Id_i_S1_P3E.5_K3.1_C3.3_[T-3C]_[C-2G]_[T-1C]_H3.1_A3.1_F3.1_T3.2] | 8.53
53 | UCUCUUAAAUAUAUAUAUAUCUCUU (ssRNA) [Id_i_S1_P3E.6_K3.2_C3.3_[T-3A]_[C-2A]_[T-1A]_H3.2_A3.1_F3.1_T3.2] | 1040
54 | UCUCUUUCUAUAUAUAUAUCUCUU (ssRNA) [Id_ii_S1_P3E.3_K3.2_C3.2_[C-2T]_[T-1C]_H3.2_A3.1_F3.1_T3.2] | 368
55 | UCUCUUGCACACUAUAUAUCUCUU (ssRNA) [Id_i_S1_P3E.4_K3.3_C3.2_[C-2G]_[T-1C]_H3.3_A3.1_F3.1_T3.2] | 116
56 | UCUCUUCACUAUAUAUAUAUCUCUU (ssRNA) [Id_i_S1_P3E.6_K3.2_C3.3_[T-3C]_[C-2A]_[T-1C]_H3.2_A3.1_F3.1_T3.2] | 144
57 | UCUCUUAAACACUAUAUAUCUCUU (ssRNA) [Id_i_S1_P3E.4_K3.3_C3.2_[C-2A]_[T-1A]_H3.3_A3.1_F3.1_T3.2] | > 2300
58 | UCUCUUACUAUAUAUAUAUCUCUU (ssRNA) [Id_i_S1_P3E.3_K3.2_C3.2_[C-2A]_[T-1C]_H3.2_A3.1_F3.1_T3.2] | 458
59 | UCUCUUAAUGUAUAUAUAUCUCUU (ssRNA) [Id_i_S1_P3E.2_K3.1_C3.2_[C-2A]_[T-1A]_H3.1_A3.1_F3.1_T3.2] | 7.22
60 | UCUCUUUAUGUAUAUAUAUCUCUU (ssRNA) [Id_ii_S1_P3E.2_K3.1_C3.2_[C-2T]_[T-1A]_H3.1_A3.1_F3.1_T3.2] | 8.02
61 | UCUCUUCUCUGUAUAUAUAUCUCUU (ssRNA) [Id_i_S1_P3E.5_K3.1_C3.3_[T-3C]_[C-2T]_[T-1C]_H3.1_A3.1_F3.1_T3.2] | 4.39

Reference: publication PMC9352680, “A comprehensive thermodynamic model for RNA binding by the Saccharomyces cerevisiae Pumilio protein PUF4”
